Data on four molecules can be found in patent publication US20250352667A1.

In assay [1] the target is KEAP1 (wild-type full-length), His-tagged (human) (UniProt Q14145). As to the kind of experiment: AlphaScreen; 9.6 nM FLAG-NRF2, 150 nM His-KEAP1; Rep 2; control for I28V.
Assay [2] shares this target. Description: AlphaScreen; 614.4 nM FLAG-NRF2, 150 nM His-KEAP1; Rep 1; control for I86V. Background: Alpha assays give light when donor and acceptor beads are brought close together.
For assay [3] the target is unchanged. Description: AlphaScreen; 153.6 nM FLAG-NRF2, 150 nM His-KEAP1; Rep 2; control for I86V.
Assay [4] shares this target. Description: AlphaScreen; FLAG-NRF2 wt isoform 1 153.6 nM, His-KEAP1 150 nM; Rep 1; positive control for Q75R.
The target is the same in assay [5]. Description: AlphaScreen; FLAG-NRF2 wt isoform 1 9.6 nM, His-KEAP1 150 nM; Rep 1; positive control for Q75R.
For assay [6] the target is unchanged. Description: AlphaScreen; NRF2 wt isoform 1 38.4 nM, KEAP1 150 nM; signal against NRF2-only control; control for Q75R.
For assay [7] the target is unchanged. Description: AlphaScreen; NRF2 wt isoform 1 9.6 nM, KEAP1 150 nM; signal against NRF2-only control; control for Q75R.
The target is the same in assay [8]. As to the kind of experiment: AlphaScreen; 2.4 nM FLAG-NRF2, 150 nM His-KEAP1; Rep 2; control for I28V.
Assay [9] shares this target. As to the kind of experiment: AlphaScreen; 38.4 nM FLAG-NRF2, 150 nM His-KEAP1 (same value as in Table 26).
Assay [10] has the same target. Description: AlphaScreen; FLAG-NRF2 wt isoform 1 9.6 nM, His-KEAP1 150 nM; Repeat 1; positive control for Q75R.
For assay [11] the target is unchanged. As to the kind of experiment: AlphaScreen; 4.8 nM FLAG-NRF2, 150 nM His-KEAP1; Rep 2; control for I28V.
Assay [12] shares this target. As to the kind of experiment: AlphaScreen; FLAG-NRF2 wt isoform 1 19.2 nM, His-KEAP1 150 nM; Rep 3; positive control for I86V.
Assay [13] has the same target. As to the kind of experiment: AlphaScreen; 19.2 nM FLAG-NRF2, 150 nM His-KEAP1; signal against NRF2 only; control for I28V.
The target is the same in assay [14]. As to the kind of experiment: AlphaScreen; 614.4 nM FLAG-NRF2, 150 nM His-KEAP1; Rep 2.
Assay [15] shares this target. Description: AlphaScreen; standard deviation of three conditions; against wild-type NRF2 isoform 1.
The target is the same in assay [16]. As to the kind of experiment: AlphaScreen; 9.6 nM FLAG-NRF2, 150 nM His-KEAP1; Repeat 2 (same value as in Table 27).
Assay [17] has the same target. Description: AlphaScreen; 153.6 nM FLAG-NRF2, 150 nM His-KEAP1; signal against NRF2 only.
For assay [18] the target is unchanged. Description: AlphaScreen; 38.4 nM FLAG-NRF2, 150 nM His-KEAP1; Repeat 1 (same value as in Table 27).
Assay [19] has the same target. Description: AlphaScreen; NRF2 I86V 38.4 nM, KEAP1 150 nM; signal against NRF2-only control.
Assay [20] shares this target. As to the kind of experiment: AlphaScreen; NRF2 I86V 76.8 nM, KEAP1 150 nM; signal against NRF2-only control.
Assay [21] has the same target. Description: AlphaScreen; FLAG-NRF2 I86V 38.4 nM, His-KEAP1 150 nM; Rep 3.
Assay [22] has the same target. Description: AlphaScreen; mean over 9.6, 19.2 and 38.4 nM NRF2 I86V, KEAP1 150 nM; relative to wild-type NRF2 isoform 1.
For assay [23] the target is unchanged. As to the kind of experiment: AlphaScreen; FLAG-NRF2 I86V 19.2 nM, His-KEAP1 150 nM; Rep 1.
For assay [24] the target is unchanged. Description: AlphaScreen; NRF2 Q75R 19.2 nM, KEAP1 150 nM; relative to wild-type NRF2 isoform 1 (100 %).
The target is the same in assay [25]. As to the kind of experiment: AlphaScreen; FLAG-NRF2 Q75R 614.4 nM, His-KEAP1 150 nM; Rep 1.
For assay [26] the target is unchanged. Description: AlphaScreen; FLAG-NRF2 Q75R 38.4 nM, His-KEAP1 150 nM; Repeat 2.
The target is the same in assay [27]. Description: AlphaScreen; FLAG-NRF2 Q75R 4.8 nM, His-KEAP1 150 nM; Rep 1.

Chain of KEAP1 (wild-type full-length), His-tagged (human) (Q14145 2-624 limits assumed): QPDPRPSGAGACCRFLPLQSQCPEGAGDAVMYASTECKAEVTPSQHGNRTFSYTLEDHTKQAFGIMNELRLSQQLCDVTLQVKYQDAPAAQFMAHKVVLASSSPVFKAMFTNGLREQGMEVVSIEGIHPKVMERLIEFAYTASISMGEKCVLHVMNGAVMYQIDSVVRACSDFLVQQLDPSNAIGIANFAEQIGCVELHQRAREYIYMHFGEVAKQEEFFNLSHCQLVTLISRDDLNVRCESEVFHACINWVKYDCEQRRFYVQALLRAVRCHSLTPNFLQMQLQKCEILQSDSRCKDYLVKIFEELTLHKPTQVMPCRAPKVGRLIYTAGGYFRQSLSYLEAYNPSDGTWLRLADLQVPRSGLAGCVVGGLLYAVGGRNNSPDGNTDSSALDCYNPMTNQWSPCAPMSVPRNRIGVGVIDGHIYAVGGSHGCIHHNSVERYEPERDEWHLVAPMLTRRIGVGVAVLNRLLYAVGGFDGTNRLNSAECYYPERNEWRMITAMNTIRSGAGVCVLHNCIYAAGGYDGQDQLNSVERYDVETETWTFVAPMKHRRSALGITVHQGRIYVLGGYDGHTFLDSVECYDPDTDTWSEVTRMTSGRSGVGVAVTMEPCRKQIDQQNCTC

B1: NRF2 isoform 1 (wild-type full-length), FLAG-tagged (protein)
chain: MMDLELPPPGLPSQQDMDLIDILWRQDIDLGVSREVFDFSQRRKEYELEKQKKLEKERQEQLQKEQEKAFFAQLQLDEETGEFLPIQPAQHIQSETSGSANYSQVAHIPKSDALYFDDCMQLLAQTFPFVDDNEVSSATFQSLVPDIPGHIESPVFIATNQAQSPETSVAQVAPVDLDGMQQDIEQVWEELLSIPELQCLNIENDKLVETTMVPSPEAKLTEVDNYHFYSSIPSMEKEVGNCSPHFLNAFEDSFSSILSTEDPNQLTVNSLNSDATVNTDFGDEFYSAFIAEPSISNSMPSPATLSHSLSELLNGPIDVSDLSLCKAFNQNHPESTAEFNDSDSGISLNTSPSVASPEHSVESSSYGDTLLGLSDSEVEELDSAPGSVKQNGPKTPVHSSGDMVQPLSPSQGQSTHVHDAQCENTPEKELPVSPGHRKTPFTKDKHSSRLEAHLTRDELRAKALHIPFPVEKIINLPVVDFNEMMSKEQFNEAQLALIRDIRRRGKNKVAAQNCRKRKLENIVELEQDLDHLKDEKEKLLKEKGENDKSLHLLKKQLSTLYLEVFSMLRDEDGKPYSPSEYSLQQTRDGNVFLVPKSKKPDVKKN
As for B1, the A-counts in assay [1] was 1640 A-counts; in assay [2], 2660 A-counts; in assay [3], 3090 A-counts; in [8], 628 A-counts; in assay [11] it was 1160 A-counts. Moreover, the A-counts (NRF2 plus KEAP1) is 1380 A-counts in assay [4], 1024 A-counts in [5], 1024 A-counts in [10] and 3040 A-counts in assay [12]. The S/N in assay [6] is 2.8; in assay [7], 3; in assay [9], 3.6; in assay [13] it was 4.2.

B2: NRF2 isoform 1 (I28V full-length), FLAG-tagged (protein)
chain: MMDLELPPPGLPSQQDMDLIDILWRQDVDLGVSREVFDFSQRRKEYELEKQKKLEKERQEQLQKEQEKAFFAQLQLDEETGEFLPIQPAQHIQSETSGSANYSQVAHIPKSDALYFDDCMQLLAQTFPFVDDNEVSSATFQSLVPDIPGHIESPVFIATNQAQSPETSVAQVAPVDLDGMQQDIEQVWEELLSIPELQCLNIENDKLVETTMVPSPEAKLTEVDNYHFYSSIPSMEKEVGNCSPHFLNAFEDSFSSILSTEDPNQLTVNSLNSDATVNTDFGDEFYSAFIAEPSISNSMPSPATLSHSLSELLNGPIDVSDLSLCKAFNQNHPESTAEFNDSDSGISLNTSPSVASPEHSVESSSYGDTLLGLSDSEVEELDSAPGSVKQNGPKTPVHSSGDMVQPLSPSQGQSTHVHDAQCENTPEKELPVSPGHRKTPFTKDKHSSRLEAHLTRDELRAKALHIPFPVEKIINLPVVDFNEMMSKEQFNEAQLALIRDIRRRGKNKVAAQNCRKRKLENIVELEQDLDHLKDEKEKLLKEKGENDKSLHLLKKQLSTLYLEVFSMLRDEDGKPYSPSEYSLQQTRDGNVFLVPKSKKPDVKKN
In the case of B2, the A-counts in assay [14] amounted to 1210 A-counts; in [16], 1560 A-counts; in [18], 1690 A-counts. For the same molecule, the Reported Value (standard deviation of reduction in binding) in assay [15] came to 7.2%. For the same molecule, the S/N in [17] is 1.7.

B3: NRF2 isoform 1 (I86V full-length), FLAG-tagged (protein)
chain: MMDLELPPPGLPSQQDMDLIDILWRQDIDLGVSREVFDFSQRRKEYELEKQKKLEKERQEQLQKEQEKAFFAQLQLDEETGEFLPVQPAQHIQSETSGSANYSQVAHIPKSDALYFDDCMQLLAQTFPFVDDNEVSSATFQSLVPDIPGHIESPVFIATNQAQSPETSVAQVAPVDLDGMQQDIEQVWEELLSIPELQCLNIENDKLVETTMVPSPEAKLTEVDNYHFYSSIPSMEKEVGNCSPHFLNAFEDSFSSILSTEDPNQLTVNSLNSDATVNTDFGDEFYSAFIAEPSISNSMPSPATLSHSLSELLNGPIDVSDLSLCKAFNQNHPESTAEFNDSDSGISLNTSPSVASPEHSVESSSYGDTLLGLSDSEVEELDSAPGSVKQNGPKTPVHSSGDMVQPLSPSQGQSTHVHDAQCENTPEKELPVSPGHRKTPFTKDKHSSRLEAHLTRDELRAKALHIPFPVEKIINLPVVDFNEMMSKEQFNEAQLALIRDIRRRGKNKVAAQNCRKRKLENIVELEQDLDHLKDEKEKLLKEKGENDKSLHLLKKQLSTLYLEVFSMLRDEDGKPYSPSEYSLQQTRDGNVFLVPKSKKPDVKKN
For B3, the S/N in assay [19] was found to be 2.9; in assay [20], 2.3. For the same molecule, the A-counts (NRF2 plus KEAP1) is 2930 A-counts in assay [21] and 3120 A-counts in assay [23]. The molecule further came in with an Average Binding in [22] of 96.8%. The same molecule displayed an Avg. Reduction in Binding in assay [22] of 3.2%.

B4: NRF2 isoform 1 (Q75R full-length), FLAG-tagged (protein)
chain: MMDLELPPPGLPSQQDMDLIDILWRQDIDLGVSREVFDFSQRRKEYELEKQKKLEKERQEQLQKEQEKAFFAQLRLDEETGEFLPIQPAQHIQSETSGSANYSQVAHIPKSDALYFDDCMQLLAQTFPFVDDNEVSSATFQSLVPDIPGHIESPVFIATNQAQSPETSVAQVAPVDLDGMQQDIEQVWEELLSIPELQCLNIENDKLVETTMVPSPEAKLTEVDNYHFYSSIPSMEKEVGNCSPHFLNAFEDSFSSILSTEDPNQLTVNSLNSDATVNTDFGDEFYSAFIAEPSISNSMPSPATLSHSLSELLNGPIDVSDLSLCKAFNQNHPESTAEFNDSDSGISLNTSPSVASPEHSVESSSYGDTLLGLSDSEVEELDSAPGSVKQNGPKTPVHSSGDMVQPLSPSQGQSTHVHDAQCENTPEKELPVSPGHRKTPFTKDKHSSRLEAHLTRDELRAKALHIPFPVEKIINLPVVDFNEMMSKEQFNEAQLALIRDIRRRGKNKVAAQNCRKRKLENIVELEQDLDHLKDEKEKLLKEKGENDKSLHLLKKQLSTLYLEVFSMLRDEDGKPYSPSEYSLQQTRDGNVFLVPKSKKPDVKKN
B4 had a Binding Percentage in [24] of 63.7%. Also, the figures for the A-counts (NRF2 plus KEAP1) in assay [25], in [26] and in assay [27] were 855 A-counts, 1280 A-counts and 826 A-counts, respectively.
